Data: patent publication US20220403428A1

Target: PcPsiH, Psilocybe cubensis tryptamine 4-monooxygenase (cytochrome P450 enzyme) (Psilocybe cubensis) (UniProt P0DPA7)
Experiment: cell-based or functional assay

Row | Substance | psilocin titer | psilocybin titer | extracellular accumulation of tryptamine
1 | PcCpr, putative Psilocybe cubensis cytochrome P450 reductase (enzyme) | 135 mg/L | 117 mg/L | –
2 | native S. cerevisiae cytochrome P450 reductase (Ncp1) (from UniProt P16603 2-691) (enzyme) | – | – | 90 mg/L
